Test [1] addresses ChiAVD–G42A (chicken | not stated) (UniProt P56734). The test is described as follows: dynamic light scattering; 50 mM NaH2PO4/Na2HPO4, 100 mM NaCl, pH 7 at 25°C; volume distribution.
The target of test [2] is ChiAVD–G42F (chicken | not stated) (UniProt P56734). The description is as above.
For test [3], the target named is Chimeric avidin ChiAVD(I117Y) (chicken | not stated) (UniProt P02701). As to the kind of experiment: solution NMR structure; biotin-bound ChiAVD, 13C/15N-labelled, 58°C, 800 MHz; intersubunit NOE peaks identified by inspection of avidin crystal structures and manually assigned; RDCs in bicelles at 40°C.
Test [4] has the same target. As to the kind of experiment: dynamic light scattering; 50 mM NaH2PO4/Na2HPO4, 100 mM NaCl, pH 7 at 25°C; volume distribution.

From publication PMC4069078 come the findings set out here.

As usually defined, the stoichiometry N is the number of molecules, sites or subunits per partner or assembly.

In test [1], “ChiAVD–G42A (from UniProt P56734 62-82; P02701 85-152)” had a stoichiometry N of 4. Regarding “ChiAVD–G42F (from UniProt P56734 62-82; P02701 85-152)”, the stoichiometry N in test [2] came to 4. “Chimeric avidin ChiAVD(I117Y) (from UniProt P02701 85-152)”: the stoichiometry N in test [3] and in test [4] was 4 throughout.
